Source: PMC4277767 (ACS Synthetic Biology, 2014)

Molecular target: LexA-CRY2 (CRY2 fused to the LexA DNA binding domain) (Arabidopsis, UniProt Q96524 1-612)
Experiment: two-hybrid

Sequence of LexA-CRY2 (CRY2 fused to the LexA DNA binding domain) (Q96524 whole entry, the tested form may be a part): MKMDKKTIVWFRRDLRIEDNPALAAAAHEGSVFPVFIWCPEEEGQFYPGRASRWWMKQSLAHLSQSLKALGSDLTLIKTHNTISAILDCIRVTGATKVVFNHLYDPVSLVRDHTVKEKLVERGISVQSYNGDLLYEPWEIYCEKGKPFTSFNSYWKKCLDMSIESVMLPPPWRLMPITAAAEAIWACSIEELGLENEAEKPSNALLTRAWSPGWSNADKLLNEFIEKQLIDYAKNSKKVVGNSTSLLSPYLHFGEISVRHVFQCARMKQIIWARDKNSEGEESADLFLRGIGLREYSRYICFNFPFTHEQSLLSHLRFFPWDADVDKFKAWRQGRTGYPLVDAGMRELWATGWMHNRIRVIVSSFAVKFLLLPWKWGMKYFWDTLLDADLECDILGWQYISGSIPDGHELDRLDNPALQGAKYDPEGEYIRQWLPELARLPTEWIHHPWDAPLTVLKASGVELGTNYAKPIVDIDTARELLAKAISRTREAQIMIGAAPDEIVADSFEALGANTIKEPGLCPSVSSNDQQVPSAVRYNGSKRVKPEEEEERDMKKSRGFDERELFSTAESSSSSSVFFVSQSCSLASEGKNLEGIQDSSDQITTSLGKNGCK

B1: VP16-CIB1 (CIB1 fused to a VP16 activation domain) (natural protein, Arabidopsis, UniProt Q8GY61 1-335, looked up)
chain: MNGAIGGDLLLNFPDMSVLERQRAHLKYLNPTFDSPLAGFFADSSMITGGEMDSYLSTAGLNLPMMYGETTVEGDSRLSISPETTLGTGNFKKRKFDTETKDCNEKKKKMTMNRDDLVEEGEEEKSKITEQNNGSTKSIKKMKHKAKKEENNFSNDSSKVTKELEKTDYIHVRARRGQATDSHSIAERVRREKISERMKFLQDLVPGCDKITGKAGMLDEIINYVQSLQRQIEFLSMKLAIVNPRPDFDMDDIFAKEVASTPMTVVPSPEMVLSGYSHEMVHSGYSSEMVNSGYLHVNPMQQVNTSSDPLSCFNNGEAPSMWDSHVQNLYGNLGV
In the case of B1, the “fold stimulation of reporter activity by blue light over dark” value is reported as about 100 fold.
